Target: T1, House dust mite allergen Der p 2 (Dermatophagoides pteronyssinus, UniProt P49278)
T1 construct: Der p 2, major allergen of the house dust mite Dermatophagoides pteronyssinus; The structure is said to show monomeric Der p 2; No PDB id is printed in the abstract; source: Pichia pastoris, purified
Assay: crystal structure; purified 4C8 Fab and Der p 2 mixed in a 1:1 molar ratio for crystallization; X-ray, 3.0 Å
Conditions: both partners purified

T1 sequence (P49278 18-146): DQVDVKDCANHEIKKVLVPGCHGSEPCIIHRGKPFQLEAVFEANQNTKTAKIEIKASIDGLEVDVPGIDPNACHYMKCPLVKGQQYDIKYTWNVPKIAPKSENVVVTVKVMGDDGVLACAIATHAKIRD

B1: human-derived IgE mAb 4C8 Fab (Fab, V domains shown)
VH: EVQLVESGGGLVQPGGSLRLSCAASGFTFSSYAIHWVRQAPGKGLEWVSGLSGGGGDTDYADSVKGRLTISRDNSKKTLFLEMNNLRPEDTAIYYCAKLTGYGSTPGSYMDVWGKGTTVSVSS
VL: SFELTQPPSVSVSPGQTASITCSGDKLGDIYASWYQQKPGQSPVVVIFQDNKRPSGVPERFSGSNSGNTATLTISGTQALDEADYYCQAWDTSTSVFGTGTKVTVL
notes: Fab of a human IgE mAb isolated from hybridomas obtained from a house dust mite allergic patient; also called hIgE mAb 4C8 Fab; source: CHO cells, purified
  stoichiometry N: 2

From paper PMC11191887, “Abstracts From the First Annual Research Day Hosted by the Michigan State University College of Osteopathic Medicine, Novi, Michigan, May 15, 2023” (Spartan Medical Research Journal, 2024)
